Measured values taken from IntAct's records for PubMed 16339905.

B1: Nephrocystin-4 (Homo sapiens), O75161-1 (parent)
chain: MNDWHRIFTQNVLVPPHPQRARQPWKESTAFQCVLKWLDGPVIRQGVLEVLSEVECHLRVSFFDVTYRHFFGRTWKTTVKPTKRPPSRIVFNEPLYFHTSLNHPHIVAVVEVVAEGKKRDGSLQTLSCGFGILRIFSNQPDSPISASQDKRLRLYHGTPRALLHPLLQDPAEQNRHMTLIENCSLQYTLKPHPALEPAFHLLPENLLVSGLQQIPGLLPAHGESGDALRKPRLQKPITGHLDDLFFTLYPSLEKFEEELLELHVQDHFQEGCGPLDGGALEILERRLRVGVHNGLGFVQRPQVVVLVPEMDVALTRSASFSRKVVSSSKTSSGSQALVLRSRLRLPEMVGHPAFAVIFQLEYVFSSPAGVDGNAASVTSLSNLACMHMVRWAVWNPLLEADSGRVTLPLQGGIQPNPSHCLVYKVPSASMSSEEVKQVESGTLRFQFSLGSEEHLDAPTEPVSGPKVERRPSRKPPTSPSSPPAPVPRVLAAPQNSPVGPGLSISQLAASPRSPTQHCLARPTSQLPHGSQASPAQAQEFPLEAGISHLEADLSQTSLVLETSIAEQLQELPFTPLHAPIVVGTQTRSSAGQPSRASMVLLQSSGFPEILDANKQPAEAVSATEPVTFNPQKEESDCLQSNEMVLQFLAFSRVAQDCRGTSWPKTVYFTFQFYRFPPATTPRLQLVQLDEAGQPSSGALTHILVPVSRDGTFDAGSPGFQLRYMVGPGFLKPGERRCFARYLAVQTLQIDVWDGDSLLLIGSAAVQMKHLLRQGRPAVQASHELEVVATEYEQDNMVVSGDMLGFGRVKPIGVHSVVKGRLHLTLANVGHPCEQKVRGCSTLPPSRSRVISNDGASRFSGGSLLTTGSSRRKHVVQAQKLADVDSELAAMLLTHARQGKGPQDVSRESDATRRRKLERMRSVRLQEAGGDLGRRGTSVLAQQSVRTQHLRDLQVIAAYRERTKAESIASLLSLAITTEHTLHATLGVAEFFEFVLKNPHNTQHTVTVEIDNPELSVIVDSQEWRDFKGAAGLHTPVEEDMFHLRGSLAPQLYLRPHETAHVPFKFQSFSAGQLAMVQASPGLSNEKGMDAVSPWKSSAVPTKHAKVLFRASGGKPIAVLCLTVELQPHVVDQVFRFYHPELSFLKKAIRLPPWHTFPGAPVGMLGEDPPVHVRCSDPNVICETQNVGPGEPRDIFLKVASGPSPEIKDFFVIIYSDRWLATPTQTWQVYLHSLQRVDVSCVAGQLTRLSLVLRGTQTVRKVRAFTSHPQELKTDPKGVFVLPPRGVQDLHVGVRPLRAGSRFVHLNLVDVDCHQLVASWLVCLCCRQPLISKAFEIMLAAGEGKGVNKRITYTNPYPSRRTFHLHSDHPELLRFREDSFQVGGGETYTIGLQFAPSQRVGEEEILIYINDHEDKNEEAFCVKVIYQ
partner: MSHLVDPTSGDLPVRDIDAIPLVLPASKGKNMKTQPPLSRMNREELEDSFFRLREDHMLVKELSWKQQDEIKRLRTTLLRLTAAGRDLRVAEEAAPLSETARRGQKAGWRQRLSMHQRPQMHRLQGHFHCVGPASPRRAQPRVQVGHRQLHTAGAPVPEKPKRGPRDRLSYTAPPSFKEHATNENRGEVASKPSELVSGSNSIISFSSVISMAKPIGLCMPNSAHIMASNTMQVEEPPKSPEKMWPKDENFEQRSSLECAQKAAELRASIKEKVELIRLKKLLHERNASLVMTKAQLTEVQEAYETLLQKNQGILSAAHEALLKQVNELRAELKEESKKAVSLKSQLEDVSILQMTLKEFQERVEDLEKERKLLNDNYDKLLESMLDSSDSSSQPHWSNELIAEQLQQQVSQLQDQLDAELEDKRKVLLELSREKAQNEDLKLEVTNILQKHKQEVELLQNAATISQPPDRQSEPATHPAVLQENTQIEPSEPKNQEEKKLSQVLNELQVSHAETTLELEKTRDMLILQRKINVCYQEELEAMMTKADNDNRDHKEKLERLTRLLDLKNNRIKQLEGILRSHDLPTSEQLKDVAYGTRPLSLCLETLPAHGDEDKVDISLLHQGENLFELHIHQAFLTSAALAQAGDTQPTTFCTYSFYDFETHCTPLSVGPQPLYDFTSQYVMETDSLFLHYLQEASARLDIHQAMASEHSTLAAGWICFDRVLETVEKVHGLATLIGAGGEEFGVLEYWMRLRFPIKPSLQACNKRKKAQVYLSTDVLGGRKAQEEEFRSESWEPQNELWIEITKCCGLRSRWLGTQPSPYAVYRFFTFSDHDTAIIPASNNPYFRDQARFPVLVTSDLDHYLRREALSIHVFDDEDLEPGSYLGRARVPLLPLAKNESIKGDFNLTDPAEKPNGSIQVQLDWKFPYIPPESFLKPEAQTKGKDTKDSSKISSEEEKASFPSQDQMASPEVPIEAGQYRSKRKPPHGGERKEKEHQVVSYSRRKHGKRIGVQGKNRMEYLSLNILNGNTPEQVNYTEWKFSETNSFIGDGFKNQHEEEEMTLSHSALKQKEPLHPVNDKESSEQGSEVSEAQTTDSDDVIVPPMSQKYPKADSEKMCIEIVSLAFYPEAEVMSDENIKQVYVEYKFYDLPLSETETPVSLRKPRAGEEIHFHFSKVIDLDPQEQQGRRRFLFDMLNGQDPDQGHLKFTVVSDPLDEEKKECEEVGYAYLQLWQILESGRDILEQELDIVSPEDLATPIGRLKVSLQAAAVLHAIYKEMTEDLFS
B2: X-linked retinitis pigmentosa GTPase regulator-interacting protein 1 (Homo sapiens), Q96KN7-1 (parent)
chain: B1 partner
partner: B1 chain

Variants of: B1
Settings: with RPGRIP1, Q96KN7-1

| Variant | effect of a mutation on the interaction |
| --- | --- |
| G754R | disrupting interaction |

Variants of: B2
Settings: with NPHP4, O75161-1

| Variant | effect of a mutation on the interaction |
| --- | --- |
| R852Q | with no effect |
| D876G | disrupting interaction |
| G746E | disrupting interaction |

Variants of: B2
Settings: with NPHP4, O75161-1
Remark: another data set of the same source

| Variant | effect of a mutation on the interaction |
| --- | --- |
| D876G | decreasing interaction |
